Among the data in PMC11140114 are GTPase rate of 100 nM Drp1 with 0, 10, 100 or 1,000 nM Nb (continuous regenerative assay, 37°C); factor of increase after addition of a 10-fold molar excess of D63 values, retold here.

The target in the experiment is recombinant human dynamin-related protein 1 (Drp1), isoform 1 (human) (UniProt O00429).
Sequence of recombinant human dynamin-related protein 1 (Drp1), isoform 1 (human) (O00429 whole entry, canonical isoform): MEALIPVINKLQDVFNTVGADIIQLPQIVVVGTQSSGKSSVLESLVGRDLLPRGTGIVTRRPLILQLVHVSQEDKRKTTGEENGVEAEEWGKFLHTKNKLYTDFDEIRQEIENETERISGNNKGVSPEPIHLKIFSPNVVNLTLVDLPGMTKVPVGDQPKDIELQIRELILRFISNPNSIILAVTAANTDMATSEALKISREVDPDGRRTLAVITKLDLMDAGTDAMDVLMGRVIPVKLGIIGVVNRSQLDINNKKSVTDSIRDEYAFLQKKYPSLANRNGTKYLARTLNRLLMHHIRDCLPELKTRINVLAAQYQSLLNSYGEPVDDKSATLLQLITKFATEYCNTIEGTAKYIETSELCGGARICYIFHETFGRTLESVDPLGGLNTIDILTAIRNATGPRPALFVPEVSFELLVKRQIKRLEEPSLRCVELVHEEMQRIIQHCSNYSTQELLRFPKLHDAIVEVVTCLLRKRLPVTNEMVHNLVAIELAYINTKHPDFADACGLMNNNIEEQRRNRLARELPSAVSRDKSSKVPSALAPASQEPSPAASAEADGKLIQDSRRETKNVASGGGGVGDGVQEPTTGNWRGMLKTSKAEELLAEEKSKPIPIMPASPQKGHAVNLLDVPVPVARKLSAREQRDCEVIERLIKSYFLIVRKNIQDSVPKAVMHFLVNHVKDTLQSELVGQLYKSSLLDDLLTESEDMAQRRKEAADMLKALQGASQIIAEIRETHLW

B1: Drp1-specific nanobody D63 (VHH)
VHH: QVQLVESGGDLVQPGGSLKLSCAVSGVSDSLSSFYLMAWHRQAPGKQREMIADIVSGKATYADSVKGRFTISRDNAENTAYLQMNSLKPEDTAVYYCNVLIQNRSTFQSYWGQGTQVTVSS
Consider B1, for which the GTPase rate of 100 nM Drp1 with 0, 10, 100 or 1,000 nM Nb (continuous regenerative assay, 37°C); factor of increase after addition of a 10-fold molar excess of D63 came to 1.7 fold.
